Source: article PMC4619679

Biological target: Dnmt1 (N-His) (UniProt P13864)
Experiment: MST
Details: EMSA: 20 mM Tris pH 7.6, 30 mM KCl, 5 mM EDTA, 1 mM DTT, 5 uM SAM, 20% glycerol, 26 C, MST: 10 mM Tris/Cl, 150 mM KCl, 0.75 mM MgCl2, 0.25 mM EGTA

UniProt P13864, sequence (P13864 whole entry): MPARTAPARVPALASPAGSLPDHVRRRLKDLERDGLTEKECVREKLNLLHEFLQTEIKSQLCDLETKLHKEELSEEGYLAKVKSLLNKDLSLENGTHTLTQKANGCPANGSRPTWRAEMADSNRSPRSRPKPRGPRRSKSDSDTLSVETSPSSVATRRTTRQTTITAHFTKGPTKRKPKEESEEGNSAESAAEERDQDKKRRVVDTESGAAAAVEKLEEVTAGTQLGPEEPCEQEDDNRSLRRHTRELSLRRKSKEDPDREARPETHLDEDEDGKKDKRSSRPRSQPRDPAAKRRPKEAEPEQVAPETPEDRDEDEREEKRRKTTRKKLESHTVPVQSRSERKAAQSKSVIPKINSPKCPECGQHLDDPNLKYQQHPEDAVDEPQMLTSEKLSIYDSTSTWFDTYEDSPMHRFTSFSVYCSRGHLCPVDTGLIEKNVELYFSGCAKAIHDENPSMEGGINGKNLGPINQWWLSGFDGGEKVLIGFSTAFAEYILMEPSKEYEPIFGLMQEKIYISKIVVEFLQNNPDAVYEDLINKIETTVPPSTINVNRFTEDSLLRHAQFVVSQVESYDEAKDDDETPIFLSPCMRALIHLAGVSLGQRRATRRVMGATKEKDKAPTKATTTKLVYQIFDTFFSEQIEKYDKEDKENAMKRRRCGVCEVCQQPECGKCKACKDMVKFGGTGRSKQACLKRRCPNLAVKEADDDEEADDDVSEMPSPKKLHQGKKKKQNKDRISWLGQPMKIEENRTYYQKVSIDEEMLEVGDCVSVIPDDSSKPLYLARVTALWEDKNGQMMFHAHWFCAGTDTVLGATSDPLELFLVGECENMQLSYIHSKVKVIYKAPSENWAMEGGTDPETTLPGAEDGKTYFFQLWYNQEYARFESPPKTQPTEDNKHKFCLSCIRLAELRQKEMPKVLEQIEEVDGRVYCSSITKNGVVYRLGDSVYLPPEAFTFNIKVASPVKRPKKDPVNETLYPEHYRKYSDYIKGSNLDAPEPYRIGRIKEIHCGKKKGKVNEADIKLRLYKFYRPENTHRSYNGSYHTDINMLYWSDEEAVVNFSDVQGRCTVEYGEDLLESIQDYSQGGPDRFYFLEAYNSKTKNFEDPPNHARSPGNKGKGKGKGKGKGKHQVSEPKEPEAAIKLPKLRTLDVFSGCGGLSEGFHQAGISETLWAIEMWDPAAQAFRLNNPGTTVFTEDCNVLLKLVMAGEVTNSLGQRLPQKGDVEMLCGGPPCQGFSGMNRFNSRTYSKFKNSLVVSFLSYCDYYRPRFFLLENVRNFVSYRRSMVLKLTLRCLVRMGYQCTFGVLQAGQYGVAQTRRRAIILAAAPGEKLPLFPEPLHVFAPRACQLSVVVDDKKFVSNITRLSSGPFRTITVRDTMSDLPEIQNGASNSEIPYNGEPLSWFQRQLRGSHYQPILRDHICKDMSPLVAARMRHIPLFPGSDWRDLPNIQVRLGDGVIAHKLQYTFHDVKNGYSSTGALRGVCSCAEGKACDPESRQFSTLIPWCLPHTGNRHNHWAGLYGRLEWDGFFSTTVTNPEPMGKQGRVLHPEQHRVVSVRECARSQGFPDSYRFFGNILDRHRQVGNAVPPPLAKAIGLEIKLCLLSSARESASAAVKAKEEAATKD

Sequence | binding signal (fold higher affinity with SAM) (160 uM SAM, 5-methyl-C at Z positions of the lower strand (C5, C12, C18, C20, C29, C33, C40, C42, C49; strand printed only up to TTAGAZG, so the CG in the last 8 nt is unknown)) | K half
TGCGGAATCGTCTAACGCGTGGAATCGTCCGATTGAGGTCGCGATCTCGAATCACGGTGC (double strand) [AIR60 hemi-methylated 60 bp DNA] | 2 | –
TGCGGAATCGTCTAACGCGTGGAATCGTCCGATTGAGGTCGCGATCTCGAATCACGGTGC (double strand) [AIR60 non-methylated 60 bp DNA] | – | 1500 nM
